In patent US20170247448A1 (INTRINSIC LIFESCIENCES, published 2017):
Ends that are not written are not given here.

How the values were obtained:
[1] = target: T1, Human hepcidin peptide (hepcidin-25) (human); assay: antibody titering ELISA, hepcidin 100 ng/well on plate, HRP-goat anti-mouse IgG; antibody 50 ng/well
T1 construct: Synthetic 25 aa peptide; also called hep-25; Hep-25
T1 peptide: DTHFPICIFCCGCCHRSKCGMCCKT

K18-biotin hepcidin-25 [2] = target: T2, K18-biotin hepcidin-25 (human, K18-biotin (biotin on Lys 18)); assay: SPR, Biacore 3000, biotin peptide on neutravidin CM5 chip, MAb 583 injected at 24 µg/ml, 25 C; hepcidin-25 biotinylated at K18 (K18-biotin) on the chip; MAb 583 at 24 µg/ml
T2 construct: also called K18-biotin hepcidin-25 tracer
T2 peptide: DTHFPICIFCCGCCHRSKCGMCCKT
Procedure: (§1) Biotinylated hepcidin peptides (NT-biotin-hepcidin-25, K18-biotin-hepcidin-25 and K24-biotin-hepcidin-25) were immobilized in flow cells 2-4 (one peptide species per flow cell) by injecting individual peptides at a concentration of 200 μg/ml at a flow rate of 5 μl/min, for 20 min.
(§2) After 3 minutes, injection was stopped and dissociation was followed for 6 min. Regeneration was performed by injecting 10 mM glycine HCl, pH 1.5 at a flow rate of 10 μl/min for 1 min.

NT-biotin hepcidin-25 [3] = target: T3, NT-biotin hepcidin-25 (human, NT-biotin (biotin at the N-terminus)); assay: SPR, Biacore 3000, biotin peptide on neutravidin CM5 chip, MAb 583 injected at 24 µg/ml, 25 C; hepcidin-25 biotinylated at the N-terminus (NT-biotin) on the chip; MAb 583 at 24 µg/ml
T3 construct: also called NT-biotin hepcidin-25 tracer; NT-Bio Tracer
T3 peptide: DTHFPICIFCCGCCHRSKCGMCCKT
Procedure: as §1, §2

[4] = target: T1, Human hepcidin peptide (hepcidin-25); assay: cell-based or functional assay
NT-biotin hepcidin-25 [5] = target: T3, NT-biotin hepcidin-25; assay: SPR (Biacore 3000, CM5 chip, 25 °C): biotinylated peptide captured on immobilised neutravidin, MAb 583 injected at 5 µg/ml (33.5 nM per the table); column head 'Ka (1/Ms)'
K18-biotin hepcidin-25 [6] = target: T2, K18-biotin hepcidin-25; assay: as above
NT-biotin hepcidin-25 [7] = target: T3, NT-biotin hepcidin-25; assay: SPR (Biacore 3000, CM5 chip, 25 °C): biotinylated peptide captured on immobilised neutravidin, MAb 583 injected at 5 µg/ml (33.5 nM per the table)
K18-biotin hepcidin-25 [8] = target: T2, K18-biotin hepcidin-25; assay: as above
NT-biotin hepcidin-25 [9] = target: T3, NT-biotin hepcidin-25; assay: SPR (Biacore 3000, CM5 chip, 25 °C): biotinylated peptide captured on immobilised neutravidin, MAb 583 injected at 5 µg/ml (33.5 nM per the table); column head 'Kd (1/s)'
K18-biotin hepcidin-25 [10] = target: T2, K18-biotin hepcidin-25; assay: as above
[11] = target: T1, Human hepcidin peptide (hepcidin-25); assay: antibody titering ELISA, hepcidin 100 ng/well on plate, HRP-goat anti-mouse IgG; antibody 100 ng/well
K24-biotin hepcidin-25 [12] = target: T4, K24-biotin hepcidin-25 (human, K24-biotin (biotin on Lys 24)); assay: SPR, Biacore 3000, biotin peptide on neutravidin CM5 chip, MAb 583 injected at 24 µg/ml, 25 C; hepcidin-25 biotinylated at K24 (K24-biotin) on the chip; MAb 583 at 24 µg/ml
T4 construct: also called K24-biotin hepcidin-25 tracer
T4 peptide: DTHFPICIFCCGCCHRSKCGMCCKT
Procedure: as §1, §2

[13] = target: T1, Human hepcidin peptide (hepcidin-25); assay: antibody titering ELISA, hepcidin 100 ng/well on plate, HRP-goat anti-mouse IgG; antibody 12.5 ng/well
[14] = target: T1, Human hepcidin peptide (hepcidin-25); assay: cell-based or functional assay
[15] = target: T1, Human hepcidin peptide (hepcidin-25); assay: antibody titering ELISA, hepcidin 100 ng/well on plate, HRP-goat anti-mouse IgG; antibody 25 ng/well
K24-biotin hepcidin-25 [16] = target: T4, K24-biotin hepcidin-25; assay: SPR, Biacore 3000, biotin peptide on neutravidin CM5 chip, MAb 583 injected at 24 µg/ml, 25 C
Procedure: as §1, §2

NT-biotin hepcidin-25 [17] = target: T3, NT-biotin hepcidin-25; assay: as above
Procedure: as §1, §2

K18-biotin hepcidin-25 [18] = target: T2, K18-biotin hepcidin-25; assay: as above
Procedure: as §1, §2

[19] = target: T5, Human hepcidin 10-25 peptide (human, also: oxidized peptide); assay: competition ELISA on MAb 583 coated plate, NT-biotin hepcidin-25 tracer
T5 construct: also called hep 10-25; Hep 10-25
T5 peptide: CCGCCHRSKCGMCCKT
Description: (§3) Competition was detected by streptavidin-HRP with the substrate tetramethylbenzidine; the color reaction was stopped with 0.5 N H₂SO₄ and the optical density of the solution read at 450 nm wavelength.
(§4) Binding of biotinylated hepcidin-25 analogs and detection of bound NT-biotin hepcidin-25 was used to detect relative degree of binding of each of the hepcidin peptides relative to hepcidin-25 (data not shown).

Mouse hepcidin-1 peptide = target: T6, Mouse hepcidin-1 peptide (mouse); assay: as above
T6 construct: also called mouse hepcidin-25; murine hepcidin-1
T6 peptide: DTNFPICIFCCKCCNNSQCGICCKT
Description: as §3, §4

NT-biotin hepcidin-25 [20] = target: T3, NT-biotin hepcidin-25; assay: SPR, Biacore, biotin peptide on neutravidin chip, MAb 583 at 5 µg/ml
K18-biotin hepcidin-25 [21] = target: T2, K18-biotin hepcidin-25; assay: as above

OD 450 nm [1]: 4 OD450
Kd (K18-biotin hepcidin-25 [2]): 0.878 nM
Kd (NT-biotin hepcidin-25 [3]): 0.0516 nM
IC50 (read off the curve); normalized ferritin (% of uninduced sample) of Fpn-GFP HEK cells, 37 nM hepcidin-25 present [4]: ~2 nM
kon (NT-biotin hepcidin-25 [5]): 1.33e+06 M⁻¹ s⁻¹
kon (K18-biotin hepcidin-25 [6]): 1.88e+06 M⁻¹ s⁻¹
Ka (NT-biotin hepcidin-25 [7]): 5.47e+10 M⁻¹
Kd (NT-biotin hepcidin-25 [7]): 0.0183 nM
Ka (K18-biotin hepcidin-25 [8]): 1.34e+11 M⁻¹
Kd (K18-biotin hepcidin-25 [8]): 0.00745 nM
koff (NT-biotin hepcidin-25 [9]): 2.43e-05 s⁻¹
koff (K18-biotin hepcidin-25 [10]): 1.4e-05 s⁻¹
OD 450 nm [11]: 4 OD450
Kd (K24-biotin hepcidin-25 [12]): 5.54 nM
OD 450 nm [13]: 4 OD450
EC50 (read off the curve); GFP fluorescence (% of untreated sample) of Fpn-GFP HEK cells, 37 nM hepcidin-25 present [14]: ~2 nM
OD 450 nm [15]: 4 OD450
Ka (K24-biotin hepcidin-25 [16]): 1.8e+08 M⁻¹
Req (K24-biotin hepcidin-25 [16]): 63.1 RU
kobs (K24-biotin hepcidin-25 [16]): 0.0086 s⁻¹
koff (K24-biotin hepcidin-25 [16]): 0.000288 s⁻¹
kon (K24-biotin hepcidin-25 [16]): 52000 M⁻¹ s⁻¹
Ka (NT-biotin hepcidin-25 [17]): 1.94e+10 M⁻¹
Req (NT-biotin hepcidin-25 [17]): 78.8 RU
kobs (NT-biotin hepcidin-25 [17]): 0.00977 s⁻¹
koff (NT-biotin hepcidin-25 [17]): 3.15e-06 s⁻¹
kon (NT-biotin hepcidin-25 [17]): 61100 M⁻¹ s⁻¹
Ka (K18-biotin hepcidin-25 [18]): 1.14e+09 M⁻¹
Req (K18-biotin hepcidin-25 [18]): 126 RU
kobs (K18-biotin hepcidin-25 [18]): 0.0102 s⁻¹
koff (K18-biotin hepcidin-25 [18]): 5.59e-05 s⁻¹
kon (K18-biotin hepcidin-25 [18]): 63700 M⁻¹ s⁻¹
binding result [19]: no binding (tested: up to 2000 ng/ml)
binding result (Mouse hepcidin-1 peptide): no binding
Kd (NT-biotin hepcidin-25 [20]): ~0.018 nM
Kd (K18-biotin hepcidin-25 [21]): ~0.0075 nM
B1: MAb 583 (antibody, V domains shown)
VH: QIQLVQSGPELKKPGETVKISCKASGYTFTNYGMNWVKQAPGKGLKWMGWINTYTGEPTYADDFKGRFAFSLETSASTAYLQINNLKNEDTATYFCTTYATSWYWGQG
VL: DIVLTQSPASLAVSLGQRATISCRASESVDSYGNSFMHWYQQKPGQPPKLLIYRASNLESGIPARFSGSGSRTDFTLTINPVEADDVATYYCQQSNEDLTFG
notes: Murine monoclonal, Protein A purified
